B1: Serine protease HTRA2, mitochondrial (Homo sapiens), O43464 (parent)
chain: MAAPRAGRGAGWSLRAWRALGGIRWGRRPRLTPDLRALLTSGTSDPRARVTYGTPSLWARLSVGVTEPRACLTSGTPGPRAQLTAVTPDTRTREASENSGTRSRAWLAVALGAGGAVLLLLWGGGRGPPAVLAAVPSPPPASPRSQYNFIADVVEKTAPAVVYIEILDRHPFLGREVPISNGSGFVVAADGLIVTNAHVVADRRRVRVRLLSGDTYEAVVTAVDPVADIATLRIQTKEPLPTLPLGRSADVRQGEFVVAMGSPFALQNTITSGIVSSAQRPARDLGLPQTNVEYIQTDAAIDFGNSGGPLVNLDGEVIGVNTMKVTAGISFAIPSDRLREFLHRGEKKNSSSGISGSQRRYIGVMMLTLSPSILAELQLREPSFPDVQHGVLIHKVILGSPAHRAGLRPGDVILAIGEQMVQNAEDVYEAVRTQSQLAVQIRRGRETLTLYVTPEVTE
partner: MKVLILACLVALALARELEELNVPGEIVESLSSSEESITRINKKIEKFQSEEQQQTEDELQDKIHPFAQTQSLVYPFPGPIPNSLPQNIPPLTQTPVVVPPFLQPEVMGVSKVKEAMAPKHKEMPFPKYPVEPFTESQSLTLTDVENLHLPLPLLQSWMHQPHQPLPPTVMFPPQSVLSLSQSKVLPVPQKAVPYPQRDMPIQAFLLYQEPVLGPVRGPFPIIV

Variants of: B1
Details: with casb_bovin CSN2, P02666

| Variant | effect of a mutation on the interaction |
| --- | --- |
| G363A | decreasing interaction |

Reference: IntAct's records for PubMed 24698088
